Series [1] concerns the target T1, synthetic peptide Ac-SPLAQA-VRSSSR-NH2 (SEQ ID NO: 17) with the P′1 valine substituted by alanine.
T1 chain: SPLAQAARSSSR

Series [2] addresses T2, synthetic peptide Ac-SPLAQA-VRSSSR-NH2 (SEQ ID NO: 17) with the P′1 valine substituted by glycine.
T2 chain: SPLAQAGRSSSR

In series [3] the target is T3, synthetic peptide Ac-SPLAQA-VRSSSR-NH2 (SEQ ID NO: 17) with the P′1 valine substituted by serine.
T3 chain: SPLAQASRSSSR

B1: tumor necrosis factor-alpha converting enzyme (TACE) catalytic domain (protein)
chain: RADPDPMKNTCKLLVVADHRFYRYMGRGEESTTTNYLIELIDRVDDIYRNTAWDNAGFKGYGIQIEQIRILKSPQEVKPGEKHYNMAKSYPNEEKDAWDVKMLLEQFSFDIAEEASKVCLAHLFTYQDFDMGTLGLAYVGSPRANSHGGVCPKAYYSPVGKKNIYLNSGLTSTKNYGKTILTKEADLVTTHELGHNFGAEHDPDGLAECAPNEDQGGKYVMYPIAVSGDHENNKMFSQCSKQSIYKTIESKAQECFQERSNKVGSHHHHHH
B1: the “catalytic activity of TACE (product formation quantified at 214 nm after HPLC separation; 100 nM TACE, 100 micromolar substrate)” value in series [1], in series [2] and in series [3] was “decreased activity of TACE to non-detectable levels” throughout.

Values taken from patent publication US20070148669.
